Measurements taken from patent publication US20150125397A1, “DUAL SPECIFIC BINDING PROTEINS DIRECTED AGAINST IMMUNE CELL RECEPTORS AND AUTOANTIGENS” (ABBVIE INC., priority 2013, published 2015).

T1: mIgM (Mus musculus, UniProt P01872)
T1 sequence (P01872 1-454): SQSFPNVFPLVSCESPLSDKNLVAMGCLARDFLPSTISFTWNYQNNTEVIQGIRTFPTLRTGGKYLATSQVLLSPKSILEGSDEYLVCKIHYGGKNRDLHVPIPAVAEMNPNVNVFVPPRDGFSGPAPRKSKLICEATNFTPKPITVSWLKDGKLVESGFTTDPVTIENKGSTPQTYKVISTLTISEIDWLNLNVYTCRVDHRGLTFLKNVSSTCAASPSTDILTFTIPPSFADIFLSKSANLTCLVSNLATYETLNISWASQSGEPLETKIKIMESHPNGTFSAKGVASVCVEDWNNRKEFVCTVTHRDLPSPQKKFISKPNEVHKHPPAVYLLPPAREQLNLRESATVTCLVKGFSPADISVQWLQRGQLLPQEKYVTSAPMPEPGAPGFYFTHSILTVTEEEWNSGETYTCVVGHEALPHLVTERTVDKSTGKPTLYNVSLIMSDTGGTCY


Legend:
mIgM = molecular target: T1, mIgM; assay: IgM binding ELISA (mouse IgM); conditions: for potency in IgM binding assay: among DVD3751-DVD3760; for IgM Binding EC50: mIgM-coated ELISA, half-log dilution 10 μg/ml-0.01 μg/ml
Protocol: Reactivity of the DVD-Ig proteins with mIgM was determined by enzyme-linked immunosorbent assay (ELISA). Briefly, each well of an Ultra Cruz 96 well microtiter plate (Santa Cruz Biotechnology, Dallas, Tex.) was coated with mIgM at a concentration of 1 μg/ml in 100 μl of PBS. The plate was covered in plastic wrap and incubated overnight at 4° C. Each well of the plate was then washed 3× with 300 μl of PBST. After the final wash, 200 μl of blocking buffer (1% BSA in PBS) was added to each well and the plate incubated at RT for 2 hours. The plate was then washed as above. Rows B-H of the microtiter plate were filled with 100 μl of dilution buffer (1% BSA in PBST). The DVD-Ig proteins were then diluted to […] in dilution buffer and 147 μl of a DVD-Ig protein was added in duplicate to row A of a 96 well plate. For a ½ log dilution, 47 μl was transferred from row A to row B. The pipette tips were replaced with clean tips and 47 μl from row B was transferred to row C. The serial transfers were repeated as above until row G. To assess the binding of the secondary detection reagent to the coated IgM, the final transfer 47 μl was only transferred from G1-G10 to H1-H10 and wells H11 and H12 were left containing 100 μl of dilution buffer. To maintain a 100 μl assay volume, 47 μl was removed from wells H1-H10 and G11-G12 and discarded. After the serial dilution was completed, the plate was incubated for 1-2 hours at RT. The plate was washed as above and then 100 μl of horseradish peroxidase conjugated goat α-hIgG Fc specific, diluted 1:3,000 in dilution buffer, was added to each well. The plate was incubated for 1 hour at RT and then washed 4× as above. The plate was developed by adding 100 μl of 3′,3′,5′,5′-Tetramethylbenzidine (TMB) substrate solution to each well and incubating the plate in the dark for 10-15 minutes. The enzymatic reaction was stopped by adding 100 μl of 1M H2SO4 to each well. The plate was read at 450 nm on an EnVision 2102 multilabel reader (Perkin Elmer, Waltham, Mass.).
DVD-Ig proteins DVD3751-DVD3760 were characterized by IgM binding assay at half-log dilution starting at 10 μg/ml-0.01 μg/ml according to the method of Example 2.5.
IgM binding ELISA: Titrations of the DVD-Ig™ proteins (10 μg/ml to 0.01 μg/ml) were added to ELISA plates coated with murine IgM. Bound antibody was detected with biotinylated anti-human IgG and streptavidin-HRP. EC50 were calculated from the titration curve using Prism6.

AM14 WT B cells = assay: [3H]thymidine incorporation, BCR/TLR9 stimulation of AM14 WT B cells; format: cell-based, mouse; set-up: key to 3H incorporation AM14 WT, relative result: (X)-(XXX) indicates relative results; (XX): (X)-(XXX) indicates relative results; (X)-(XXX) indicates relative results; level of 3H incorporation / 3H incorporation AM14 WT: dose or concentration left out as unconfirmed; conditions: for 3H incorporation AM14 WT: 24 hours, then 6 hours pulse
Text: (§1) The AM14 B cell receptor (BCR) transgenic mouse has been described previously (Sweet et al. (2010) Autoimmun 43(8): 607-18). Briefly, AM14 is a BCR comprising the AM14 heavy chain and the Vk8 light chain that recognizes murine IgG2a (mIgG2a) of the “a” allotype. Between 95-98% of B cells in a mouse positive for the AM14 heavy chain and Vk8 light chain express the AM14 BCR. To generate AM14 B cells that are deficient in TLR9, TLR7 or FcγRIIB, the AM14 and Vk8 genes were bred to the appropriate knock out mice.
(§2) Primary murine B cells were purified by positive selection using BD Imag™ CD45R/B220 magnetic particles (BD Biosciences, San Jose, Calif.). Briefly, B cells were cultured in RPMI containing, pencillin-streptomycin, β-mercaptoethanol, and 5% heat-inactivated fetal calf serum (FCS) in 96 well flat bottom plates at a density of 4×10^5 cells/well. For stimulation through the BCR and TLR9, B cells were treated with a titration of 0.3 μg/ml-0.03 μg/ml of PA4 or 5 μg/ml to 0.15 μg/ml of a DVD-Ig protein (DVD3751, DVD3752, DVD3754, DVD3755, DVD3759 and DVD3760), unless otherwise noted. Cells were also treated with 1 μg/ml 1826, an experimental ligand for TLR9, as a control. After 24 hours, the cells were pulsed for 6 hours with [3H]thymidine (Perkin Elmer, Waltham Mass.). Incorporation of [3H]thymidine was quantified via a liquid scintillation beta counter (Trilux 1450 MicroBeta, PerkinElmer) according to standard methods.
(§3) DVD-Ig proteins DVD3751-DVD3760 were characterized by ^3H incorporation at […] according to the method of Example 2.6.

DNA = assay: Antinuclear antibody (ANA) test; format: binding; conditions: ANA staining at 10 μg/ml
Protocol: The cloned BWR4 and PA4 antibodies as well as the DVD-Ig proteins were tested for ANA reactivity using the ANA test kit. Briefly, the DVD-Ig proteins and antibodies were diluted to […] in blocking buffer (1% BSA in PBS). The DVD-Ig proteins and antibodies were added to separate wells of an ANA slide at 50 μl/well and incubated in a moist chamber for 2 hours at room temperature (RT). The wells were then washed 3× with PBS. To detect bound antibodies, Alexa Fluor 488 conjugated goat α-human IgG (α-hIgG) was then added at a dilution of 1:1,000 and the slide incubated in a moist chamber for 1 hour. Unbound detecting antibody was removed by immersing the slide in a jar containing PBS and incubating for 10 minutes at RT with gentle rocking. The prior step was repeated 2× and 10 μl of Prolong® Gold Antifade was added to each well and a 24 mm×60 mm #1 cover glass seated on top. The covered slide was incubated overnight at RT and then sealed by applying clear nail polish to the edges. Binding of the DVD-Ig proteins and antibodies to the slides was assessed by fluorescence microscopy.
DVD-Ig proteins DVD3751-DVD3760 were characterized by antinuclear antibody (ANA) staining at 10 μg/ml according to the method of Example 2.4.
ANA: HEp-2 human tissue culture substrate slides were incubated with 5 μg/ml of the anti-DNA-IgG2a or the DVD-Ig™ binding protein for 2 hours at RT. The slides were washed and bound antibodies were detected with Alexa-488 goat anti-human antibody or DyLight 488 goat anti-mouse antibody.

AM14 TLR9−/− B cells = assay: [3H]thymidine incorporation, BCR/TLR9 stimulation of AM14 TLR9-/- B cells; format: cell-based, mouse; conditions: at 5 mg/ml; 24 hours, then 6 hours pulse
Text: as §1, §2, §3

| Molecule | potency in IgM binding assay (mIgM) | IgM Binding EC50 (mIgM) | 3H incorporation AM14 WT, relative result (AM14 WT B cells) | 3H incorporation AM14 WT (AM14 WT B cells) | ANA score (DNA) | 3H incorporation AM14 TLR9−/− (AM14 TLR9−/− B cells) |
| --- | --- | --- | --- | --- | --- | --- |
| DVD3756: DVD-Ig: VD1 mIgM (B7.6), GS linker, VD2 DNA(PA4); heavy SEQ ID NO 58, light 59 (antibody) heavy: QVQLKESGPGLVKPSLTLSLTCTVSGFSLNGYGVIWVRQPPGKGLEWMGVIWGNGNTNYNSTLKSRLSISRDTSKSQVFLKMNNLQTEDTAMYFCARSENYYSSPGYFAYWGQGTLVTVSSGGGGSGGGGSEVQLVESGGGLVKPGGSLKLSCVASGFTFSTYAMSWVRQTPTKRLEWVATISRGGVSTYYPDTVKGRFTISRDNAKNTLYLQMSSLRSEDTAMYYCARPPTIVTTWFAYWGQGTLVTVSS light: NTVMTQSPTSMFISVGDRVTMNCKASQNVGSDVDWYQQKTGQSPKLLISGTSNRYTGVPDRFTGSGSGTDFTLTISNMQAEDLAVYYCLQYNYNPTFGAGTKLELKRGGSGGGGSGDVVMTQTPLSLPVSLGDQASISCRSSQSLVHSNGNTYLHWYLQKPGQSPKLLIYKVSNRFSGVPDRFSGSGSGTDFTLKISRVEAEDLGAYFCSQSTHVPYTFGGPTRLEIKR | highest potency | 0.0331 µg/mL | (X) | (7793) | 1 | (459) |
| DVD3757: DVD-Ig: VD1 mIgM (B7.6), SS linker, VD2 DNA(PA4); heavy SEQ ID NO 60, light 61 (antibody) heavy: QVQLKESGPGLVKPSLTLSLTCTVSGFSLNGYGVIWVRQPPGKGLEWMGVIWGNGNTNYNSTLKSRLSISRDTSKSQVFLKMNNLQTEDTAMYFCARSENYYSSPGYFAYWGQGTLVTVSSASTKGPEVQLVESGGGLVKPGGSLKLSCVASGFTFSTYAMSWVRQTPTKRLEWVATISRGGVSTYYPDTVKGRFTISRDNAKNTLYLQMSSLRSEDTAMYYCARPPTIVTTWFAYWGQGTLVTVSS light: NTVMTQSPTSMFISVGDRVTMNCKASQNVGSDVDWYQQKTGQSPKLLISGTSNRYTGVPDRFTGSGSGTDFTLTISNMQAEDLAVYYCLQYNYNPTFGAGTKLELKRTVAAPDVVMTQTPLSLPVSLGDQASISCRSSQSLVHSNGNTYLHWYLQKPGQSPKLLIYKVSNRFSGVPDRFSGSGSGTDFTLKISRVEAEDLGAYFCSQSTHVPYTFGGPTRLEIKR | highest potency | 0.04178 µg/mL | (X) | (4063) | 1 | (382) |
| DVD3760: DVD-Ig: VD1 mIgM (B7.6), LS linker, VD2 DNA(PA4); heavy SEQ ID NO 66, light 67 (antibody) heavy: QVQLKESGPGLVKPSLTLSLTCTVSGFSLNGYGVIWVRQPPGKGLEWMGVIWGNGNTNYNSTLKSRLSISRDTSKSQVFLKMNNLQTEDTAMYFCARSENYYSSPGYFAYWGQGTLVTVSSASTKGPSVFPLAPEVQLVESGGGLVKPGGSLKLSCVASGFTFSTYAMSWVRQTPTKRLEWVATISRGGVSTYYPDTVKGRFTISRDNAKNTLYLQMSSLRSEDTAMYYCARPPTIVTTWFAYWGQGTLVTVSS light: NTVMTQSPTSMFISVGDRVTMNCKASQNVGSDVDWYQQKTGQSPKLLISGTSNRYTGVPDRFTGSGSGTDFTLTISNMQAEDLAVYYCLQYNYNPTFGAGTKLELKRTVAAPDVVMTQTPLSLPVSLGDQASISCRSSQSLVHSNGNTYLHWYLQKPGQSPKLLIYKVSNRFSGVPDRFSGSGSGTDFTLKISRVEAEDLGAYFCSQSTHVPYTFGGPTRLEIKR | highest potency | 0.03529 µg/mL | (X) | (4335) | 1 | (302) |
